Assay results as given in article PMC9482650, “Quantitative fragmentomics allow affinity mapping of interactomes” (Nature Communications, 2022).

Columns and labels:
Assay in all cases: holdup assay
Set-up in all cases: key: below the threshold = too weak to quantify, mostly under pKd 3.1 to 4
[1] = molecular target: ARHGEF12, Q9NZN5-2
[2] = molecular target: DLG2_2, Q15700
[3] = molecular target: DLG2_3, Q15700
[4] = molecular target: T1, DLG3_1, Q92796
T1 sequence (Q92796 125-227, limits assumed, looked up): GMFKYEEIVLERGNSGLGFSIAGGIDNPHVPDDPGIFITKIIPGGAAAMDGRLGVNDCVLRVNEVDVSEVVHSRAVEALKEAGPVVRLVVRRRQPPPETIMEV

[5] = molecular target: FRMPD2_1, Q68DX3
[6] = molecular target: GORASP2, Q9H8Y8
[7] = molecular target: GRIP2_3, Q9C0E4
[8] = molecular target: GRIP2_5, Q9C0E4
[9] = molecular target: GRIP2_6, Q9C0E4
[10] = molecular target: T2, HTRA4, P83105
T2 sequence (P83105 378-476, limits assumed, looked up): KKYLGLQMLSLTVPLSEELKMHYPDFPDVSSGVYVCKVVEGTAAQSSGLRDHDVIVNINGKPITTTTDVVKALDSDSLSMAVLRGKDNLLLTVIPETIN

[11] = molecular target: Inadl_1, Q8NI35
[12] = molecular target: LDB3, O75112
[13] = molecular target: T3, LIN7B, Q9HAP6
T3 sequence (Q9HAP6 88-185, limits assumed, looked up): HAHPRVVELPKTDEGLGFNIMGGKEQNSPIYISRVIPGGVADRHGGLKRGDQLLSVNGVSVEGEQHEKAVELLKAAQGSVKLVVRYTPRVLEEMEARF

[14] = molecular target: LNX1_3, Q8TBB1
[15] = molecular target: T4, LRRC7, Q96NW7
T4 sequence (Q96NW7 1440-1537, limits assumed, looked up): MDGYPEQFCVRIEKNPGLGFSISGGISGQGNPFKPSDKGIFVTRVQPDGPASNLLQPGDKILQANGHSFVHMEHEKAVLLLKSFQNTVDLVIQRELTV

[16] = molecular target: MAST2, Q6P0Q8
[17] = molecular target: T5, MPP2, Q14168
T5 sequence (Q14168 180-250, limits assumed, looked up): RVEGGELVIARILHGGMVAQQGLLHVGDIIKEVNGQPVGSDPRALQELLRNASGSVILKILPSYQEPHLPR

[18] = molecular target: T6, MPP6, Q9NZW5
T6 sequence (Q9NZW5 125-219, limits assumed, looked up): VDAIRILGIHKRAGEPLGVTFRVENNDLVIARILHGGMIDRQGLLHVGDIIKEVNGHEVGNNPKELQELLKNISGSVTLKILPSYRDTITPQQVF

[19] = molecular target: T7, NHERF3_1, Q5T2W1
T7 sequence (Q5T2W1 4-100, limits assumed, looked up): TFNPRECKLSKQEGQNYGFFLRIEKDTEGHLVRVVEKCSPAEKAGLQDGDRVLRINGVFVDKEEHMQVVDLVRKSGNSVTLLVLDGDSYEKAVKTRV

[20] = molecular target: T8, NHERF3_4, Q5T2W1
T8 sequence (Q5T2W1 373-468, limits assumed, looked up): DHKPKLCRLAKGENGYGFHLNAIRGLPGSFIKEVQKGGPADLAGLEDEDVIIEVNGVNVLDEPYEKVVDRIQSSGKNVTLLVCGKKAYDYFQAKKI

[21] = molecular target: PDLIM1, O00151
[22] = molecular target: T9, PDZRN3_1, Q9UPQ7
T9 sequence (Q9UPQ7 244-349, limits assumed, looked up): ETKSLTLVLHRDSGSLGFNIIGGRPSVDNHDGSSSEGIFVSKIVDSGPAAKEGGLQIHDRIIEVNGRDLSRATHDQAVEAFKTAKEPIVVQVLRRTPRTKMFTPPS

[23] = molecular target: SCRIB_2, Q14160
[24] = molecular target: T10, SNTB1, Q13884
T10 sequence (Q13884 107-205, limits assumed, looked up): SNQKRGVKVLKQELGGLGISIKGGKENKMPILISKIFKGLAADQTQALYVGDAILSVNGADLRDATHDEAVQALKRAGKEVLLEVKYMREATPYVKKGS

[25] = molecular target: TJP1_2, Q07157
[26] = molecular target: T11, TX1BP3, O14907
T11 sequence (O14907 10-122, limits assumed, looked up): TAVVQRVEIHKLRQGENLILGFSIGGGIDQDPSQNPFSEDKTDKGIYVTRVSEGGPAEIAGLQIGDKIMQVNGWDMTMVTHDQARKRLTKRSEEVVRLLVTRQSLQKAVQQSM

[27] = plain residues with an end cap or a label only (N-terminal biotin on a linker: ahx)
[28] = plain residues with an end cap or a label only (N-terminal biotin on a linker: ttds)
[29] = plain residues with an end cap or a label only (N-terminal biotin on a linker: ado-ado)

Chain of LNX1_3, Q8TBB1 (Q8TBB1 500-596): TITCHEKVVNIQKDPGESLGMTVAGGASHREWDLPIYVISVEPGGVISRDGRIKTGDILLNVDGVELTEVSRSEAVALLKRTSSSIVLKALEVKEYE
Chain of ARHGEF12, Q9NZN5-2 (Q9NZN5 other isoform, or with tags, fused parts or gaps): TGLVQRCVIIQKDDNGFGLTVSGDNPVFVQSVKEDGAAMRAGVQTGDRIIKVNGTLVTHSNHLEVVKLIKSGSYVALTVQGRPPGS
Chain of SCRIB_2, Q14160 (Q14160 857-960): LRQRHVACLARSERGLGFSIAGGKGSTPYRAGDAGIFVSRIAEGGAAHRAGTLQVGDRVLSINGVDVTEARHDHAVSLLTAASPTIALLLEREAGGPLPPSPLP
Chain of GRIP2_3, Q9C0E4 (Q9C0E4 238-339): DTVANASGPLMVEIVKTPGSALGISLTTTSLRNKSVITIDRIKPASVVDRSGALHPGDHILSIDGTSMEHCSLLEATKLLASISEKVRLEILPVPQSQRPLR
Chain of FRMPD2_1, Q68DX3 (Q68DX3 770-861): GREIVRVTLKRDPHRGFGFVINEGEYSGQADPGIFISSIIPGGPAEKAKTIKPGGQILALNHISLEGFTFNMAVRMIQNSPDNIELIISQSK
Chain of GRIP2_5, Q9C0E4 (Q9C0E4 544-642): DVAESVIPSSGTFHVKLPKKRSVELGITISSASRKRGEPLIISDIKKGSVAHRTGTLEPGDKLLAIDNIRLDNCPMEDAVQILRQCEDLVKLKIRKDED
Chain of Inadl_1, Q8NI35 (Q8NI35 113-229): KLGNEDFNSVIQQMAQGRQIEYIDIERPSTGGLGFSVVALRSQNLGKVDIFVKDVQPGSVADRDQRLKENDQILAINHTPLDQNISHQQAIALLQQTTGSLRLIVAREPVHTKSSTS
Chain of GRIP2_6, Q9C0E4 (Q9C0E4 648-740): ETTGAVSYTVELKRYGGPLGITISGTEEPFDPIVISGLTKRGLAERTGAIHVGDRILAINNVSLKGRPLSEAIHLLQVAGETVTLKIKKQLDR
Chain of MAST2, Q6P0Q8 (Q6P0Q8 1099-1202): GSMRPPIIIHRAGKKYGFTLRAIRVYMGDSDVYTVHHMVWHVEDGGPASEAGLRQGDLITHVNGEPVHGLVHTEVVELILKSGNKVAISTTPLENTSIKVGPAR
Chain of PDLIM1, O00151 (O00151 1-87): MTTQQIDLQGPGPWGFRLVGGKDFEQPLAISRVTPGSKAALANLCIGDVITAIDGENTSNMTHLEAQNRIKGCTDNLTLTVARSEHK
Chain of TJP1_2, Q07157 (Q07157 181-274): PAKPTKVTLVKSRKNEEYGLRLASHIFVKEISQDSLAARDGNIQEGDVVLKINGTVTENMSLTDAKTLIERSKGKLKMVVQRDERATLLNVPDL
Chain of LDB3, O75112 (O75112 1-94): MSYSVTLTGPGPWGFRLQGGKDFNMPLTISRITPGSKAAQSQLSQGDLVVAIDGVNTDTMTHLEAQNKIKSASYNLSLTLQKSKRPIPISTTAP

KTSAHHATFV [RGS12, O14924]
pKd [1, 27]: 3.82
pKd [2, 27]: 4.01
pKd [3, 27]: 3.47
pKd [4, 27]: below the threshold
pKd [5, 27]: below the threshold
pKd [6, 27]: 4.12
pKd [7, 27]: below the threshold
pKd [8, 27]: below the threshold
pKd [9, 27]: below the threshold
pKd [10, 27]: 3.97
pKd [11, 27]: below the threshold
pKd [12, 27]: below the threshold
pKd [13, 27]: below the threshold
pKd [14, 27]: below the threshold
pKd [15, 27]: 3.59
pKd [16, 27]: 4.33
pKd [17, 27]: below the threshold
pKd [18, 27]: below the threshold
pKd [19, 27]: 4.41
pKd [20, 27]: below the threshold
pKd [21, 27]: below the threshold
pKd [22, 27]: below the threshold
pKd [23, 27]: 3.47
pKd [24, 27]: 3.47
pKd [25, 27]: below the threshold
pKd [26, 27]: 3.78

IQREDQETAV [DGKZ, Q13574]
pKd [1, 28]: 4.22
pKd [2, 28]: 4.69
pKd [3, 28]: 4.38
pKd [4, 28]: 4.26
pKd [5, 28]: below the threshold
pKd [6, 28]: below the threshold
pKd [7, 28]: below the threshold
pKd [8, 28]: below the threshold
pKd [9, 28]: below the threshold
pKd [10, 28]: below the threshold
pKd [11, 28]: below the threshold
pKd [12, 28]: below the threshold
pKd [13, 28]: 4.09
pKd [14, 28]: below the threshold
pKd [15, 28]: below the threshold
pKd [16, 28]: 5.76
pKd [17, 28]: below the threshold
pKd [18, 28]: below the threshold
pKd [19, 28]: 5.14
pKd [20, 28]: below the threshold
pKd [21, 28]: below the threshold
pKd [22, 28]: 4.91
pKd [23, 28]: 4.86
pKd [24, 28]: 5.29
pKd [25, 28]: below the threshold
pKd [26, 28]: 4.18

SSSNSEDTEM [NHERF3, Q5T2W1]
pKd [1, 27]: below the threshold
pKd [2, 27]: below the threshold
pKd [3, 27]: below the threshold
pKd [4, 27]: below the threshold
pKd [5, 27]: below the threshold
pKd [6, 27]: below the threshold
pKd [7, 27]: below the threshold
pKd [8, 27]: below the threshold
pKd [9, 27]: below the threshold
pKd [10, 27]: below the threshold
pKd [11, 27]: below the threshold
pKd [12, 27]: below the threshold
pKd [13, 27]: below the threshold
pKd [14, 27]: below the threshold
pKd [15, 27]: below the threshold
pKd [16, 27]: 4.5
pKd [17, 27]: below the threshold
pKd [18, 27]: below the threshold
pKd [19, 27]: below the threshold
pKd [20, 27]: below the threshold
pKd [21, 27]: below the threshold
pKd [22, 27]: below the threshold
pKd [23, 27]: below the threshold
pKd [24, 27]: below the threshold
pKd [25, 27]: below the threshold
pKd [26, 27]: below the threshold

SVVSERISSV [HTR2C, P28335]
pKd [1, 29]: 4.18
pKd [2, 29]: 4.4
pKd [3, 29]: 3.89
pKd [4, 29]: below the threshold
pKd [5, 29]: below the threshold
pKd [6, 29]: 3.89
pKd [7, 29]: below the threshold
pKd [8, 29]: below the threshold
pKd [9, 29]: below the threshold
pKd [10, 29]: below the threshold
pKd [11, 29]: below the threshold
pKd [12, 29]: below the threshold
pKd [13, 29]: 3.7
pKd [14, 29]: below the threshold
pKd [15, 29]: below the threshold
pKd [16, 29]: 4.78
pKd [17, 29]: below the threshold
pKd [18, 29]: below the threshold
pKd [19, 29]: below the threshold
pKd [20, 29]: below the threshold
pKd [21, 29]: below the threshold
pKd [22, 29]: 3.51
pKd [23, 29]: below the threshold
pKd [24, 29]: 4.89
pKd [25, 29]: below the threshold
pKd [26, 29]: 4.06

SPLHSLETSL [ATP2B1, P20020]
pKd [1, 28]: 4.88
pKd [2, 28]: 4.18
pKd [3, 28]: 4.07
pKd [4, 28]: 3.62
pKd [5, 28]: below the threshold
pKd [6, 28]: below the threshold
pKd [7, 28]: below the threshold
pKd [8, 28]: below the threshold
pKd [9, 28]: below the threshold
pKd [10, 28]: 3.48
pKd [11, 28]: 3.69
pKd [12, 28]: below the threshold
pKd [13, 28]: 4.22
pKd [14, 28]: below the threshold
pKd [15, 28]: 3.58
pKd [16, 28]: 5.88
pKd [17, 28]: below the threshold
pKd [18, 28]: below the threshold
pKd [19, 28]: 5.24
pKd [20, 28]: 3.94
pKd [21, 28]: 3.71
pKd [22, 28]: 5.09
pKd [23, 28]: 4.27
pKd [24, 28]: 4.69
pKd [25, 28]: below the threshold
pKd [26, 28]: 4.45

MERLRVETDV [ARHGEF16, Q5VV41]
pKd [1, 28]: 4.22
pKd [2, 28]: 5.21
pKd [3, 28]: 4.11
pKd [4, 28]: 4.59
pKd [5, 28]: 3.79
pKd [6, 28]: 4.25
pKd [7, 28]: below the threshold
pKd [8, 28]: below the threshold
pKd [9, 28]: below the threshold
pKd [10, 28]: 3.74
pKd [11, 28]: below the threshold
pKd [12, 28]: below the threshold
pKd [13, 28]: below the threshold
pKd [14, 28]: below the threshold
pKd [15, 28]: 3.81
pKd [16, 28]: 5.56
pKd [17, 28]: below the threshold
pKd [18, 28]: below the threshold
pKd [19, 28]: below the threshold
pKd [20, 28]: below the threshold
pKd [21, 28]: 4
pKd [22, 28]: 3.53
pKd [23, 28]: 5.01
pKd [24, 28]: 4.84
pKd [25, 28]: below the threshold
pKd [26, 28]: 5.04
